The values below come from PMC9978855 (Acta Pharmaceutica Sinica. B, 2022).

The target of this experiment is NLRP3 protein, purchased recombinant (UniProt Q96P20 1-1036). The experiment can be described thus: SPR. A general note: Surface plasmon resonance follows binding to a sensor surface in real time, without labels.
Chain of NLRP3 protein, purchased recombinant (Q96P20 whole entry): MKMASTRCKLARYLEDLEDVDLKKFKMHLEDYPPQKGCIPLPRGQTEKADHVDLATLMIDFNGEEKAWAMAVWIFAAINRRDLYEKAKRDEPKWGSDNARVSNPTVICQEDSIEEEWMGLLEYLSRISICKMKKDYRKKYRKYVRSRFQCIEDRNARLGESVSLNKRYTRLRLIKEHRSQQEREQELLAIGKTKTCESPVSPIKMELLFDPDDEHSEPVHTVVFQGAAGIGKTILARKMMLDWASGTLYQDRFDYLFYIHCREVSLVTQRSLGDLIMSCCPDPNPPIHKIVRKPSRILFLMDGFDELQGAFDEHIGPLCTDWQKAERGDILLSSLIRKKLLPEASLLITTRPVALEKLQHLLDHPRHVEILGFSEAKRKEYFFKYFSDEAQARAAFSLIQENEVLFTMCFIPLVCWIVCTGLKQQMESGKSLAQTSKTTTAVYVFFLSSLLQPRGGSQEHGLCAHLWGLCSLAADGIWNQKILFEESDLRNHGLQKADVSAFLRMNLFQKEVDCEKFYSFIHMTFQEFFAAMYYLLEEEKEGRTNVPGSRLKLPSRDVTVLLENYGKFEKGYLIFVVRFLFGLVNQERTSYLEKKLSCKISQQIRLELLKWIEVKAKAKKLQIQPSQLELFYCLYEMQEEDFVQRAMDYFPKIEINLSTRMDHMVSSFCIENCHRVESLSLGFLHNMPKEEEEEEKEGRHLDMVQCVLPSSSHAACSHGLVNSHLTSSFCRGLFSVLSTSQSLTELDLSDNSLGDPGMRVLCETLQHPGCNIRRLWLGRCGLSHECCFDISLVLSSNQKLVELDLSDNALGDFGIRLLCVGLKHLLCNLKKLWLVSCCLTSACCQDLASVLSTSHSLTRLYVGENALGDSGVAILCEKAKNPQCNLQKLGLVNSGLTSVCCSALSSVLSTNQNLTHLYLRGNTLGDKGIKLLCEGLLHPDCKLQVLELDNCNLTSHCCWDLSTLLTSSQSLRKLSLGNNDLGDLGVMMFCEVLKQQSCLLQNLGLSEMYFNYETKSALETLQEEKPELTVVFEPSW

B1: ASCT2 protein (alanine-serine-cysteine transporter 2), purchased recombinant (natural protein, UniProt Q15758 1-541, looked up)
chain: MVADPPRDSKGLAAAEPTANGGLALASIEDQGAAAGGYCGSRDQVRRCLRANLLVLLTVVAVVAGVALGLGVSGAGGALALGPERLSAFVFPGELLLRLLRMIILPLVVCSLIGGAASLDPGALGRLGAWALLFFLVTTLLASALGVGLALALQPGAASAAINASVGAAGSAENAPSKEVLDSFLDLARNIFPSNLVSAAFRSYSTTYEERNITGTRVKVPVGQEVEGMNILGLVVFAIVFGVALRKLGPEGELLIRFFNSFNEATMVLVSWIMWYAPVGIMFLVAGKIVEMEDVGLLFARLGKYILCCLLGHAIHGLLVLPLIYFLFTRKNPYRFLWGIVTPLATAFGTSSSSATLPLMMKCVEENNGVAKHISRFILPIGATVNMDGAALFQCVAAVFIAQLSQQSLDFVKIITILVTATASSVGAAGIPAGGVLTLAIILEAVNLPVDHISLILAVDWLVDRSCTVLNVEGDALGAGLLQNYVDRTESRSTEPELIQVKSELPLDPLPVPTEEGNPLLKHYRGPAGDATVASEKESVM
Usually Kd stands for the equilibrium constant for the complex coming apart. As for B1, the Kd was about 3.45 µM.
